Assay results published in paper PMC5354205, “Structure and assembly of scalable porous protein cages” (Nature Communications, 2017).
Substitutions are numbered along the chain they refer to. “And” between values parts separate entries of the source, which are not always exact repeats. Identical values can stand only once.

How the values were obtained:
[1] = biological target: lumazine synthase from Aquifex aeolicus, wild-type protein (AaLS-wt), C-terminal His6-tag (Aquifex aeolicus) (UniProt O66529); assay: cryo-EM structure; single-particle reconstruction; 20 mM Tris-HCl pH 7.8, 0.2 M NaCl, 5 mM EDTA; monomer 80, 80 and 300 uM; Titan Krios 300 kV
[2] = biological target: lumazine synthase from Aquifex aeolicus, wild-type protein (AaLS-wt), C-terminal His6-tag (Aquifex aeolicus) (UniProt O66529); assay: native MS; 5 uM monomer in 150 mM ammonium acetate, 25 mM triethylammonium acetate, pH 7.8; modified qTOF, nano-electrospray, positive ion mode; subunit copy number of the cage
[3] = biological target: AaLS-neg (lumazine synthase from Aquifex aeolicus with R83E, T86E, T120E, Q123E), C-terminal His6-tag (Aquifex aeolicus) (UniProt O66529); assay: cryo-EM structure; single-particle reconstruction; 20 mM Tris-HCl pH 7.8, 0.2 M NaCl, 5 mM EDTA; monomer 80, 80 and 300 uM; Titan Krios 300 kV
[4] = biological target: the molecule itself; assay: native MS; AaLS-neg pre-incubated in low ionic strength buffer: 10 mM ammonium acetate, pH 7.8; cage dissociated into smaller capsomers
[5] = biological target: the molecule itself; assay: native MS; 5 uM monomer in 150 mM ammonium acetate, 25 mM triethylammonium acetate, pH 7.8; modified qTOF, nano-electrospray, positive ion mode; subunit copy number of the cage

lumazine synthase from Aquifex aeolicus, wild-type protein (AaLS-wt), C-terminal His6-tag (from UniProt O66529 1-154) (enzyme)
stoichiometry N [1]: 60 | stoichiometry N [2]: 60

AaLS-neg (lumazine synthase from Aquifex aeolicus with R83E, T86E, T120E, Q123E), C-terminal His6-tag (from UniProt O66529 1-154)
stoichiometry N [3]: 180

B1: AaLS-neg lacking a His6-tag (pMG211_AaLS-neg_noHis) (other, Aquifex aeolicus, UniProt O66529 1-154, looked up)
chain: MEIYEGKLTAEGLRFGIVASRFNHALVDRLVEGAIDCIVRHGGREEDITLVRVPGSWEIPVAAGELARKEDIDAVIAIGVLIEGAEPHFDYIASEVSKGLANLSLELRKPITFGVITADELEEAIERAGTKHGNKGWEAALSAIEMANLFKSLR
notes: lumazine synthase, Aquifex aeolicus, with four lumenal residues mutated to glutamate; Made for native MS; 180-mer in 150 mM ammonium acetate; pentamers, 10-mers and 15-mers after low ionic strength; source: E. coli BL21-gold (DE3), purified (lysate heated at 85 °C, MonoQ anion exchange, SEC Sephacryl S-400); copies: 180
stoichiometry N [4]: 5 and 10 and 15 | stoichiometry N [5]: 180

B2: AaLS-13 lacking a His6-tag (pMG211_AaLS-13_noHis) (other, Aquifex aeolicus, UniProt O66529 1-154, looked up)
chain: B1 chain with D28G, R52C, T112S, V115D, A118D, R127C, K131E
notes: lumazine synthase, Aquifex aeolicus, with the four mutations of AaLS-neg and seven more from directed evolution; Made for native MS; charge states not resolved, the copy number only estimated (240 to 420); source: E. coli BL21-gold (DE3), purified (ammonium sulphate, MonoQ anion exchange, SEC Sephacryl S-400; 3 mM DTT added)
stoichiometry N [5]: 240 to 420
